Test results reported in patent US20050196402A1.

Target: FcRI on U937 cells (human) (UniProt P12314)
Assay: unlabeled protein competing with the same 125I-labeled protein for binding to IFN-γ-treated U937 cells

Sequence of FcRI on U937 cells (human) (P12314 16-374): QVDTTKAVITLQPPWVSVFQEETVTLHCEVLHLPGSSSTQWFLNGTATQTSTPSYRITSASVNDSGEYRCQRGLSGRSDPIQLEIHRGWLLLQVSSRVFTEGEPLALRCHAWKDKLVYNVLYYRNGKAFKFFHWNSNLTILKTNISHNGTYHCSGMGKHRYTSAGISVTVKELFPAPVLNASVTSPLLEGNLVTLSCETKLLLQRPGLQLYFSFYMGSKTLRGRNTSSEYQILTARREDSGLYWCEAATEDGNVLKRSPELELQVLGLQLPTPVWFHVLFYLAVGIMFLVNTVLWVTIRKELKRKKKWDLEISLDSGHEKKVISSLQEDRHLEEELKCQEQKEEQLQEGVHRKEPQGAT

Substance	IC50 [nM]
human IgG1 (antibody)	75
hCTLA4-IgG1 (from UniProt P16410 37-161) (Fc fusion)	70
